Sequences and labels used below:
B1: HDV Ribozyme (parent)
chain: GGCCGGCAUGGUCCCAGCCUCCUCGCUGGCGCCGGCUGGGCAACAUUCCGAGGGGACCGUCCCCUCGGUAAUGGCGAAUGGGACCCA

The data set covers variants of B1. Kind of data set: self-cleavage, relative activity (ratio to wild type); higher = more cleavage; co-transcriptional.
Consider GGCCGGCGUGGUCCCAGCCUCCUCGCUGGCGCCGGCUGGGCAACAUUCCGAGGGGACCGUCCCCUCGGGAAUGGCGAAUGGGACCCA [A8G U69G], for which the self-cleavage amounted to 1.19. Consider GGCCGGCGUGGUCCCAGCCUCCUCGCUGGCGCCGGCUGGGCAACAUUCCGAGGGGACCGUCCCCUCGGCAAUGGCGAAUGGGACCCA [A8G U69C], for which the self-cleavage worked out at 1.16.

Regarding GGCCGGCGUGGUCCCAGCCUCCUCGCUGGCGCCGGCCGGGCAACAUUCCGAGGGGACCGUCCCCUCGGUAAUGGCGAAUGGGACCCA [A8G U37C], the self-cleavage worked out at 1.22. On to GGCCGGCUUGGUCCCAGCCUCCUCGCUGGCGCCGGCUGGGCAACAUUCCGAGGGGUCCGUCCCCUCGGUAAUGGCGAAUGGGACCCA [A8U A56U], for which the self-cleavage is 0.705. Regarding GGCCGGCUUGGUCCCAGCCUCCUCGCUGGCGCCGGCUGGGCAACAUUCCGAGGGGGCCGUCCCCUCGGUAAUGGCGAAUGGGACCCA [A8U A56G], the self-cleavage was 0.957. With GGCCGGCUUGGUCCCAGCCUCCUCGCUGGCGCCGGCUGGGCAACAUUCCGAGGGGCCCGUCCCCUCGGUAAUGGCGAAUGGGACCCA [A8U A56C] the figure was 1.25; with GGCCGGCUUGGUCUCAGCCUCCUCGCUGGCGCCGGCUGGGCAACAUUCCGAGGGGACCGUCCCCUCGGUAAUGGCGAAUGGGACCCA [A8U C14U], 0.864; with GGCCGGCUUGGUCCCAGCCUCCUAGCUGGCGCCGGCUGGGCAACAUUCCGAGGGGACCGUCCCCUCGGUAAUGGCGAAUGGGACCCA [A8U C24A], 0.208.

In the case of GGCCGGCUUGGUCCCAGCCUCCUUGCUGGCGCCGGCUGGGCAACAUUCCGAGGGGACCGUCCCCUCGGUAAUGGCGAAUGGGACCCA [A8U C24U], the self-cleavage was found to be 0.787.

Take GGCCGGCGUGGUCCCAGCCUCCUCGCUGGCGCCGGCUGGGCAACAUUCCGAGGGGACCGCCCCCUCGGUAAUGGCGAAUGGGACCCA [A8G U60C]: the self-cleavage came to 1.16. With GGCCGGCUUGGUCCCAGCCUCCUCGCUGGCGCCGGCUGGGCAACAUUCCGAGGGGAUCGUCCCCUCGGUAAUGGCGAAUGGGACCCA [A8U C57U] the figure was 0.91; with GGCCGGCGUGGACCCAGCCUCCUCGCUGGCGCCGGCUGGGCAACAUUCCGAGGGGACCGUCCCCUCGGUAAUGGCGAAUGGGACCCA [A8G U12A], 0.

GGCCGGCGUGGCCCCAGCCUCCUCGCUGGCGCCGGCUGGGCAACAUUCCGAGGGGACCGUCCCCUCGGUAAUGGCGAAUGGGACCCA [A8G U12C]: the self-cleavage came out at 0.151.

Take GGCCGGCUUGGUCCCAGCCUCCUCGCUGGCGCCGGCUGGGAAACAUUCCGAGGGGACCGUCCCCUCGGUAAUGGCGAAUGGGACCCA [A8U C41A]: the self-cleavage amounted to 0.443. With GGCCGGCUUGGUCCCAGCCUCCUCGCUGGCGCCGGCUGGGCAACAUUACGAGGGGACCGUCCCCUCGGUAAUGGCGAAUGGGACCCA [A8U C48A] the figure was 0.875; with GGCCGGCUUGGUCCCAGCCUCCUCGCUGGCGCCGGCUGGGCAACAUUGCGAGGGGACCGUCCCCUCGGUAAUGGCGAAUGGGACCCA [A8U C48G], 1.25. For the variant GGCCGGCUUGGUCCCAGCCUCCUCGCUGGCGCCGGCUGGGCAACAUUCCGAGGGGACCGUCCCCUCGGUAAUGGCGAAUGGGACCCU [A8U A87U], the self-cleavage worked out at 0.963. With GGCCGGCUUGGUCCCAGCCUCCUCGCUGGCGCCGGCUGGGCAACAUUCCGAGGGGACCGUCCCCUCGGUAAUGGCGAGUGGGACCCA [A8U A78G] the figure was 0.388. The value for GGCCGGCUUGGUCCCAGCCUCCUCGCUGGCGCCGGCUGGGCAACAUUCCGAGGGGACCGUCCCCUCGGUAAUGGCGAUUGGGACCCA [A8U A78U] was 0.128. With GGCCGGCUUGGUCCCCGCCUCCUCGCUGGCGCCGGCUGGGCAACAUUCCGAGGGGACCGUCCCCUCGGUAAUGGCGAAUGGGACCCA [A8U A16C] the figure was 0.831.

As to GGCCGGCUUGGUCCAAGCCUCCUCGCUGGCGCCGGCUGGGCAACAUUCCGAGGGGACCGUCCCCUCGGUAAUGGCGAAUGGGACCCA [A8U C15A], the self-cleavage was determined as 0.369. For the variant GGCCGGCUUGGUCCGAGCCUCCUCGCUGGCGCCGGCUGGGCAACAUUCCGAGGGGACCGUCCCCUCGGUAAUGGCGAAUGGGACCCA [A8U C15G], the self-cleavage was 0.277. Consider GGCCGGCGUGGUCCCAGCCCCCUCGCUGGCGCCGGCUGGGCAACAUUCCGAGGGGACCGUCCCCUCGGUAAUGGCGAAUGGGACCCA [A8G U20C], for which the self-cleavage stood at 0.217. With GGCCGGCUUGGUCCCAGCCUCCUCGCUGGCGCAGGCUGGGCAACAUUCCGAGGGGACCGUCCCCUCGGUAAUGGCGAAUGGGACCCA [A8U C33A] the figure was 0.185; with GGCCGGCUUGGUCCCAGCCUCCUCGCUGGCGCCGGCUGGGCAACCUUCCGAGGGGACCGUCCCCUCGGUAAUGGCGAAUGGGACCCA [A8U A45C], 0.166. With GGCCGGCUUGGUCCCAGCCUCCUCGCUGGCGCCGGCUGGGCAACAUUCGGAGGGGACCGUCCCCUCGGUAAUGGCGAAUGGGACCCA [A8U C49G] the figure was 0.76; with GGCCGGCUUGGUCCCAGCCUCCUCGCUGGCGCCGGCUGGGCAACAUUCAGAGGGGACCGUCCCCUCGGUAAUGGCGAAUGGGACCCA [A8U C49A], 1.13; with GGCCGGCUUGGUCCCAGCCUCCUCGCUGGCGCCGGCUGGGCAACAUUCUGAGGGGACCGUCCCCUCGGUAAUGGCGAAUGGGACCCA [A8U C49U], 0.739. Take GGCCGGCUUGGUCCCAGCCUCCUCGCUGGCGCCGGAUGGGCAACAUUCCGAGGGGACCGUCCCCUCGGUAAUGGCGAAUGGGACCCA [A8U C36A]: the self-cleavage worked out at 0.0811. With GGCCGGCUUGGUCCCAGCCUCCUCGCUGGCGCCGGGUGGGCAACAUUCCGAGGGGACCGUCCCCUCGGUAAUGGCGAAUGGGACCCA [A8U C36G] the figure was 0.125; with GGCCGGCUUGGUCCCAGCCUCCUCGCUGGCGCCGGUUGGGCAACAUUCCGAGGGGACCGUCCCCUCGGUAAUGGCGAAUGGGACCCA [A8U C36U], 0.554. Turning to GGCCGGCUUGGUCCCAGCCUCCUCGCUGGUGCCGGCUGGGCAACAUUCCGAGGGGACCGUCCCCUCGGUAAUGGCGAAUGGGACCCA [A8U C30U], the self-cleavage was 0.529. The value for GGCCGGCUUGGUCCCAGCCUCCUCGCUGGAGCCGGCUGGGCAACAUUCCGAGGGGACCGUCCCCUCGGUAAUGGCGAAUGGGACCCA [A8U C30A] was 0.299.

As to GGCCGGCGUGGUCCCAGCCUCCUCGCUGGCGCCGGCUGGGCAACAUUCCGAGGGGACCGUCCCCUCGGUAACGGCGAAUGGGACCCA [A8G U72C], the self-cleavage turned out to be 0.293. For the variant GGCCGGCGUGGUCCCAGCCUCCUCGCUGGCGCCGGCUGGGCAACAUUCCGAGGGGACCGUCCCCUCGGUAAAGGCGAAUGGGACCCA [A8G U72A], the self-cleavage is 0.554. The value for GGCCGGCUUGGUCCCAGCCUCCUCGCUGGCGCCGGCUGGGCUACAUUCCGAGGGGACCGUCCCCUCGGUAAUGGCGAAUGGGACCCA [A8U A42U] was 0.314; that for GGCCGGCGUGGUCCCAGCCUCCUCGCUGGCGCCGGCUGGGCAACACUCCGAGGGGACCGUCCCCUCGGUAAUGGCGAAUGGGACCCA [A8G U46C] was 0.782; that for GGCCGGCUUGGUCCCAGCUUCCUCGCUGGCGCCGGCUGGGCAACAUUCCGAGGGGACCGUCCCCUCGGUAAUGGCGAAUGGGACCCA [A8U C19U] was 0.0308. GGCCGGCUUGGUCCCAGCCUCCUCGCUGGCGCCGGCUGGGCAACAUUCCGAGGGGACCGUCCCCUCGGUAAUGGCGAAUGGGACCCA [A8U]: the self-cleavage turned out to be 0.863. The value for GGCCGGCGUGGUCCCAGCCUCCACGCUGGCGCCGGCUGGGCAACAUUCCGAGGGGACCGUCCCCUCGGUAAUGGCGAAUGGGACCCA [A8G U23A] was 0.9; that for GGCCGGCGUGGUCCCAGCCUCCGCGCUGGCGCCGGCUGGGCAACAUUCCGAGGGGACCGUCCCCUCGGUAAUGGCGAAUGGGACCCA [A8G U23G] was 0.776. The value for GGCCGGCUUGGUCCCAGCCUCCUCGCUGGCGCCGGCUGGGCAACAUUCCGAGGGGACCGUCCCCUCGGUCAUGGCGAAUGGGACCCA [A8U A70C] was 0.692. The value for GGCCGGCUUGGUCCCAGCCUCCUCGUUGGCGCCGGCUGGGCAACAUUCCGAGGGGACCGUCCCCUCGGUAAUGGCGAAUGGGACCCA [A8U C26U] was 0.86; that for GGCCGGCUUGGUCCCAGCCUCCUCGGUGGCGCCGGCUGGGCAACAUUCCGAGGGGACCGUCCCCUCGGUAAUGGCGAAUGGGACCCA [A8U C26G] was 1.03.

Take GGCCGGCUUGGUCCCAGCCUCCUCGAUGGCGCCGGCUGGGCAACAUUCCGAGGGGACCGUCCCCUCGGUAAUGGCGAAUGGGACCCA [A8U C26A]: the self-cleavage turned out to be 0.997. With GGCCGGCUUGGUCCCAGCCUUCUCGCUGGCGCCGGCUGGGCAACAUUCCGAGGGGACCGUCCCCUCGGUAAUGGCGAAUGGGACCCA [A8U C21U] the figure was 0.147.

On to GGCCGGCUUGGUCCCAGCCUGCUCGCUGGCGCCGGCUGGGCAACAUUCCGAGGGGACCGUCCCCUCGGUAAUGGCGAAUGGGACCCA [A8U C21G], for which the self-cleavage came to 0.119. With GGCCGGCUUGGUUCCAGCCUCCUCGCUGGCGCCGGCUGGGCAACAUUCCGAGGGGACCGUCCCCUCGGUAAUGGCGAAUGGGACCCA [A8U C13U] the figure was 0.302; with GGCCGGCGCGGUCCCAGCCUCCUCGCUGGCGCCGGCUGGGCAACAUUCCGAGGGGACCGUCCCCUCGGUAAUGGCGAAUGGGACCCA [A8G U9C], 1.11. With GGCCGGCUUGGUCCCAGCCUCCUCGCUGGCGCCGGCUGGGCAAUAUUCCGAGGGGACCGUCCCCUCGGUAAUGGCGAAUGGGACCCA [A8U C44U] the figure was 0.415; with GGCCGGCUUGGUCCCAGCCUCCUCGCUGGCGCCGGCUGGGCAAGAUUCCGAGGGGACCGUCCCCUCGGUAAUGGCGAAUGGGACCCA [A8U C44G], 0.731. With GGCCGGCUUGGUCCCAGCCUCCUCGCUGGCGCCGGCUGGGCAAAAUUCCGAGGGGACCGUCCCCUCGGUAAUGGCGAAUGGGACCCA [A8U C44A] the figure was 0.449; with GGCCGGCGUGGUCCCAGCCUCCUCGCUGGCGCCGGCUGGGCAACAUUCCGAGGGGACCGUCCCCCCGGUAAUGGCGAAUGGGACCCA [A8G U65C], 1.05; with GGCCGGCGUGGUCCCAGCCUCCUCGCCGGCGCCGGCUGGGCAACAUUCCGAGGGGACCGUCCCCUCGGUAAUGGCGAAUGGGACCCA [A8G U27C], 0.791. As for GGCCGGCGUGGUCCCAGCCUCCUCGCAGGCGCCGGCUGGGCAACAUUCCGAGGGGACCGUCCCCUCGGUAAUGGCGAAUGGGACCCA [A8G U27A], the self-cleavage was 0.867. On to GGCCGGCUUGGUCCCAGCCUCUUCGCUGGCGCCGGCUGGGCAACAUUCCGAGGGGACCGUCCCCUCGGUAAUGGCGAAUGGGACCCA [A8U C22U], for which the self-cleavage is 0.598. The value for GGCCGGCUUGGUCCCAGCCUCGUCGCUGGCGCCGGCUGGGCAACAUUCCGAGGGGACCGUCCCCUCGGUAAUGGCGAAUGGGACCCA [A8U C22G] was 0.19; that for GGCCGGCUUGGUCCCAGACUCCUCGCUGGCGCCGGCUGGGCAACAUUCCGAGGGGACCGUCCCCUCGGUAAUGGCGAAUGGGACCCA [A8U C18A] was 0.0554; that for GGCCGGCUUGGUCCCAGUCUCCUCGCUGGCGCCGGCUGGGCAACAUUCCGAGGGGACCGUCCCCUCGGUAAUGGCGAAUGGGACCCA [A8U C18U] was 0.631. As to GGCCGGCUUGGUCCCAGGCUCCUCGCUGGCGCCGGCUGGGCAACAUUCCGAGGGGACCGUCCCCUCGGUAAUGGCGAAUGGGACCCA [A8U C18G], the self-cleavage worked out at 0.172.

For the variant GGCCGGCUUGGUCCCAGCCUCCUCGCUGGCGCCGGCUGGGCAACAUUCCGAGGGGACCGUCCCCUCGGUAAUGGCGGAUGGGACCCA [A8U A77G], the self-cleavage was found to be 0.779. The value for GGCCGGCUUGGUCCCAGCCUCCUCGCUGGCGCCGGCUGGGCAACAUUCCGAGGGGACCGUCCCCUCGGUAAUGGCGCAUGGGACCCA [A8U A77C] was 0.0665; that for GGCCGGCUUGGUCCCAGCCUCCUCGCUGGCGCCGGCUGGGCAACAUUCCGAGGGGACCGUCCCCUCGGUAAUGGCGUAUGGGACCCA [A8U A77U] was 0.0898. Regarding GGCCGGCUUGGUCCCAGCCUCCUCGCUGGCGCCGGCUGGGCAACAUUCCGAGGGGACAGUCCCCUCGGUAAUGGCGAAUGGGACCCA [A8U C58A], the self-cleavage was 0.862.

(Values after the RNAGym collection of RNA variant scans (doi:10.7554/elife.80360).)
